Experimental findings from doi:10.1101/2025.08.11.669711, “Site-Specific Nanobody Inhibitors of the Proteasomal Deubiquitinase UCH37” (bioRxiv, 2025) are described below.

Test [1] deals with T1, UCH37 (Homo sapiens, strain).
T1 construct: from His8-MBP-TEV-UCH37 in pVP16 (DNASU); The purification of free UCH37 is not described; in the complexes with RPN13 the His-MBP tag was removed with TEV protease; also called UCHL5; free UCH37; source: E. coli, purified (His-MBP-TEV-UCH37 construct; individually purified for the crystal)
T1 chain: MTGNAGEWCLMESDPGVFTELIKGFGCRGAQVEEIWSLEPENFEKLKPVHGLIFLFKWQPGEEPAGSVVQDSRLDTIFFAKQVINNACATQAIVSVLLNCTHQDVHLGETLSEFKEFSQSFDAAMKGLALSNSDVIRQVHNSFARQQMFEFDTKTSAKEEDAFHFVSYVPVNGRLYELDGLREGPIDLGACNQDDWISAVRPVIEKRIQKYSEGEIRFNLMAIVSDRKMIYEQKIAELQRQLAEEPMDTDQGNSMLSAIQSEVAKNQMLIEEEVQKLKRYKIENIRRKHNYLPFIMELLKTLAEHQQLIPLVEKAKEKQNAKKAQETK
The experiment in a line: not stated; recombinant purified Nb-v1 with free UCH37 (Supplementary Figure 2b). The settings on record: both partners purified.

Another test has as its target T2, Ub-UCH37•RPN13^DEUBAD (Homo sapiens, strain, active site cysteine covalently linked to Ub propargylamine (Ub-PA) | C-terminal propargylamine after residue 75, linked to the active site cysteine of UCH37; biotin on the Avi tag in the …).
T2 construct: from His8-MBP-TEV-UCH37 in pVP16 (DNASU); RPN13 (ADRM1) DEUBAD domain, aa 253-407, cloned from His10-RPN13 in pET19b; ubiquitin residues 1-75 (Ub_(1-75)-propargylamine, made from Avi-Ub_(1-75)-intein); In the pull-down it was offered as a mixture with unconjugated UCH37•RPN13^DEUBAD; also called Ub conjugated UCH37•RPN13^DEUBAD; UCH37•RPN13^DEUBAD -Ub-PA; source: UCH37•RPN13^DEUBAD (E. coli, …)
In words: native MS; 150 mM ammonium acetate pH 6.8; UCH37•RPN13^DEUBAD variants premixed with Nb-ncS1 in equimolar ratio, 1 hour on ice; final 10 uM; nanospray, Synapt G2. The settings on record: both partners purified.

The target of test [2] is T3, UCH37•RPN13^DEUBAD (Homo sapiens, strain).
T3 construct: from His8-MBP-TEV-UCH37 in pVP16 (DNASU); RPN13 (ADRM1) DEUBAD domain, aa 253-407, cloned from His10-RPN13 in pET19b; source: E. coli BL21(DE3) pLysS, co-purified (Ni-NTA, TEV, GST resin, 3C, Superdex 200); not shown: His8, N-terminal, cleaved; MBP, N-terminal, cleaved; GST, N-terminal, cleaved
T3 chain 1: T1 chain
T3 chain 2: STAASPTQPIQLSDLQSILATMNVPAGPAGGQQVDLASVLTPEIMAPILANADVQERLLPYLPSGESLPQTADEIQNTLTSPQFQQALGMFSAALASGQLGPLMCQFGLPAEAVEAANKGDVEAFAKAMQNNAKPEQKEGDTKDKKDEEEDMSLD
The test is described as above. The settings on record: both partners purified.

Test [3] has as its target T1, UCH37. In words: SPR; BIACORE T200, His-Nb immobilised on NTA chip (about 30 RU); purified UCH37 injected, single cycle kinetics; 50 mM HEPES pH 7.5, 50 mM NaCl, 50 μM EDTA, 0.005% TWEEN 20; 25 °C; 1:1 model. The settings on record: both partners purified. In general terms: SPR reads the build-up and loss of mass on a sensor chip optically.
The target of test [4] is T3, UCH37•RPN13^DEUBAD. In words: SEC-MALS; nanobodies incubated with UCH37•RPN13^DEUBAD on ice 30 min; TSKgel G3000SWXL; 50 mM sodium phosphate pH 6.5, 150 mM sodium chloride, 10% isopropanol; room temperature. The settings on record: both partners purified. For orientation: SEC sorts molecules by how far they enter the pores of the column.
For another test, the target named is T4, UCH37•RPN13 (Homo sapiens, strain).
T4 construct: from His8-MBP-TEV-UCH37 in pVP16 (DNASU); RPN13 (ADRM1), His10-RPN13 in pET19b; source: E. coli BL21(DE3) pLysS, co-purified (amylose, TEV, Ni-NTA, Superdex 200); not shown: His8, N-terminal, cleaved; MBP, N-terminal, cleaved
T4 chain 1: T1 chain
T4 chain 2: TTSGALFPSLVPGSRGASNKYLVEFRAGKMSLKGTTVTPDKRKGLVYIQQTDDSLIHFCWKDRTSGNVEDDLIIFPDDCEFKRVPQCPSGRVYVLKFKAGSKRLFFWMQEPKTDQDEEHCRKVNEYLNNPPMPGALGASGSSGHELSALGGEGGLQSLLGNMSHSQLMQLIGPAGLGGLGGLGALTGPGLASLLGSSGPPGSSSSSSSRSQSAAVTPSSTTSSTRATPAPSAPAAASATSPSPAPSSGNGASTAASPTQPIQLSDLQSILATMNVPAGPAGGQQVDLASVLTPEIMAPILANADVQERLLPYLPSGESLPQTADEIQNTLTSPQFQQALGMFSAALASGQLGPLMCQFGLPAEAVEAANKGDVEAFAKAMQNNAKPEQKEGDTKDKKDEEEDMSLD
The experiment in a line: MST; nanobody labelled with fluorescein isothiocyanate at 20 nM (Nb-ncS1) or 50 nM (Nb-cS1); UCH37•RPN13 titrated 4 μM to 0.12 nM or 46 μM to 2.8 nM; 50 mM Tris pH 7.4, 150 mM NaCl, 10 mM MgCl2, 0.05% tween-20; room temperature; 1:1 Kd fit; duplicates. The settings on record: both partners purified.

Test [5] deals with T5, UCH37 (endogenous) (Homo sapiens (HEK293FT, endogenous)).
T5 construct: endogenous UCH37 (UCHL5) of HEK293FT cells; also called UCHL5
T5 chain: T1 chain
In words: co-IP; WT HEK293FT transfected with HA-Flag-tagged nanobodies; anti-FLAG resin 3 hours 4 °C; lysis in 50 mM HEPES pH 7.5, 50 mM NaCl, 5 mM MgCl2, 2 mM ATP, 1 mM DTT, 10% glycerol; blots of UCH37 and proteasome subunits. The settings on record: partners not purified.

A further test addresses T6, HSP70 chaperone HSPA1B (Homo sapiens, UniProt P0DMV9).
T6 construct: endogenous HSPA1B; source: endogenous, UCH37KO HEK293FT lysate
In words: affinity purification with mass spectrometry; as a15, but UCH37KO HEK293FT cells. The settings on record: partners not purified.

Test [6] deals with translation elongation factor EEF2 (Homo sapiens, UniProt P13639). The description is as above. The settings on record: partners not purified.
For test [7], the target named is T5, UCH37 (endogenous). The experiment in a line: affinity purification with mass spectrometry; WT HEK293FT transfected with HaloTag nanobodies; immunoprecipitation, on-bead trypsin digestion, TMT labelling; compared with Halo-Nb-ctrl. The settings on record: partners not purified.

Numbering of substitutions follows the chain as printed. Names and notes keep the numbering of the source.

T6 sequence (P0DMV9 whole entry): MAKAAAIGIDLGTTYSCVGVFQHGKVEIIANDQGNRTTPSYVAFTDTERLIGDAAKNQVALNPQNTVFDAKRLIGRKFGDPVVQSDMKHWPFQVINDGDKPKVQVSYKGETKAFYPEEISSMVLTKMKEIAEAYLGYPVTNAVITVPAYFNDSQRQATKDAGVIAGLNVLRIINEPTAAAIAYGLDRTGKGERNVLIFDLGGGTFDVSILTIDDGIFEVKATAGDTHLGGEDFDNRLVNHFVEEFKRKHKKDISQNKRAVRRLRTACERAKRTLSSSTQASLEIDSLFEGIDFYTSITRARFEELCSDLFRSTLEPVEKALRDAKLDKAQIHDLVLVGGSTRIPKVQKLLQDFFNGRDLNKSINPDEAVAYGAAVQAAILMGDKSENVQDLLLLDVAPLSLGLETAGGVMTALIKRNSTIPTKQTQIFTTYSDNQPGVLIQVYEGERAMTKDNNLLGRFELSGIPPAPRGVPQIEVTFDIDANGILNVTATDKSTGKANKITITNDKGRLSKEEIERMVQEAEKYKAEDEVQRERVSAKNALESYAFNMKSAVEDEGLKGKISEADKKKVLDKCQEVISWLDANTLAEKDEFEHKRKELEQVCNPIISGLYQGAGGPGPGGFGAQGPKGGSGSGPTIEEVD

B1: Nb-v1 (recombinant) (VHH)
VHH: QVQLQESGGGLVQAGGSLRLSCAASGYIFRSYRMGWYRQAPGKERELVAAIGLGGNTYYADSVKGRFTISRDNAKNTVYLQMNSLKPEDTAVYYCAALHGKPPAFSPFAYWGQGTQVTVSS
notes: most enriched clone of the first yeast display selection, parent of Nb-ncS1 (Nb-ncS1 = Nb-v1 with Q1R, L80Q, H99Y, A109P); His-tagged nanobodies were made in E. coli BL21 (DE3) by the general method; source: recombinant production and purification
With B1, the Kd – broadly, the equilibrium constant for the complex coming apart – in the test with UCH37 [1] turned out to be 0.3 nM.

B2: Nb-ncS1 (His-tagged) (VHH)
VHH: B1 VHH with Q1R, L80Q, H99Y, A109P
notes: as the VHH of Nb-v1 with the four stated changes; Cloned into pET28b; Labelled with fluorescein isothiocyanate for MST; also called 6xHis-tagged Nb-ncS1; His-Nb; source: E. coli BL21 (DE3), purified (Ni-NTA, Superdex 75)
For B2, the “stoichiometry N” value with Ub-UCH37•RPN13^DEUBAD and with UCH37•RPN13^DEUBAD [2] was 1 each time. In the test with UCH37 [3], this molecule had a Kd of 0.125 nM.

B3: Nb-cS1 (His-tagged) (VHH)
VHH: QVQLQESGGGLVQAGGSLRLSCAASGYISRPRTMGWYRQAPGKEREFVAIISNGAITNYADSVKGRFTISRDNAKNTVYLQMNSLKPEDTAVYYCAAGRNIWHAYWGQGTQVTVSS
notes: synthetic nanobody from a yeast display library: clone Nb-v2 matured with L47F, T50I, K99R; Cloned into pET28b; Labelled with fluorescein isothiocyanate for MST; also called 6xHis-tagged Nb-cS1; cNb; source: E. coli BL21 (DE3), purified (Ni-NTA, Superdex 75)
Consider B3, for which the stoichiometry N (as a rule, a count of units in the complex or per binding partner) with UCH37•RPN13^DEUBAD [4] is 1. The same molecule gave a Kd with UCH37•RPN13 of 200 nM.

B4: HA-Flag-tagged Nb-cS1 (VHH)
VHH: B3 VHH
notes: as the VHH of m15 (Nb-cS1); source: HEK293FT, transiently transfected (1436 pcDNA3 Flag HA vector), in lysate or in fixed cells
For the molecule B4, in the test with UCH37 (endogenous) [5], the binding result is on record as “binds”.

B5: Halo-Nb-cS1 (expressed in cells) (VHH)
VHH: B3 VHH
notes: as the VHH of m15 (Nb-cS1); The authors suspect that this fusion is misfolded in human cells; also called Halo-tagged Nb-cS1; source: HEK293FT (WT or UCH37KO), transiently transfected, in lysate; not shown: HaloTag, C-terminal, kept
As for B5, the binding result (with HSP70 chaperone HSPA1B; in [6]; with UCH37 (endogenous) [7]) was “binds” throughout.
